The source of these data is patent US20190144549A1 (TILOS THERAPEUTICS, published 2019).

For test [1], the target named is T1, LAP (LAP-TGFβ1) expressed endogenously on murine cells (murine, UniProt P04202 30-390).
T1 construct: Natural LAP-TGFβ1 on primary mouse cells, GARP+ or GARPneg; also called LAP on murine platelets, T cells, Tregs, B cells, tumour immune cells
The test is described as follows: summary table; binding to GARP+ murine cells.

In test [2] the target is T2, murine LAP-TGFβ1 on transfected cells (murine, UniProt P04202 30-390).
T2 construct: Overexpressed on P3U1 or HT1080 cells; also called P3U1-murine LAP-TGFβ1; murine TGFβ1 on transfected cells
T2 sequence (P04202 30-390): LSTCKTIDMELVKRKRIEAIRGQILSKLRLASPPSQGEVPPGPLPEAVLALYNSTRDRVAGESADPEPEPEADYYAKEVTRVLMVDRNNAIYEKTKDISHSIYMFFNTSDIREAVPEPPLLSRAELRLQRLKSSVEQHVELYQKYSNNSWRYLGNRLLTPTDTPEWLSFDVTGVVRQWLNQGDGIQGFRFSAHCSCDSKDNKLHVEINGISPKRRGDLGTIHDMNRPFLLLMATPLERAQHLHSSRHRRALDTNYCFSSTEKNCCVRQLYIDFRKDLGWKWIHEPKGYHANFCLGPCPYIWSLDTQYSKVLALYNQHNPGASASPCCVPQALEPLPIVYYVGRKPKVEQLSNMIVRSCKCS
The test is described as follows: summary table; binding to murine TGFβ1 on transfected cells.

Test [3] deals with T3, human LAP-TGFβ3 on HT1080 cells (human, UniProt P10600 24-412).
T3 construct: also called human TGFβ3
T3 sequence: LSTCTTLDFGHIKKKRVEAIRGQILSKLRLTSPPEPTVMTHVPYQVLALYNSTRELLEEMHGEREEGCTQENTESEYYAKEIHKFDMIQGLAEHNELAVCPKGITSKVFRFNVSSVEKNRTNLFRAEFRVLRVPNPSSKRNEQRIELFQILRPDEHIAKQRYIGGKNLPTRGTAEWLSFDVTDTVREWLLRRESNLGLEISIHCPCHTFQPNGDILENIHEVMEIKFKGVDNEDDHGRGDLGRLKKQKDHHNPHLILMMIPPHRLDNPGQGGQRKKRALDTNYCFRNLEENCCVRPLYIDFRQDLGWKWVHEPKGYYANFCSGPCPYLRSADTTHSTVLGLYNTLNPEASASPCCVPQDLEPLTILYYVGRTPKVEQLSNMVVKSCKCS
The experiment in a line: summary table; binding to human TGFβ3. As for the experimental part: (§1) Briefly, 4×10⁵ each of (a) HT1080 cells, (b) HT1080 cells overexpressing human LAP-TGFβ1, (c) HT1080 cells overexpressing human LAP-TGFβ2, (d) HT1080 cells overexpressing human LAP-TGFβ3, (e) HT1080 cells overexpressing murine LAP-TGFβ1, (f) P3U1 cells, (g) P3U1 cells overexpressing LAP-TGFβ1 and GARP, and (h) P3U1 cells overexpressing LAP-TGFβ1 and LRRC33 were cultured in 96-well plates. The plates were centrifuged for 5 min at 1,500 rpm, liquid was removed, and cells were resuspended with 200 μL FACS buffer. The plates were centrifuged again, diluted primary antibody was added to each well, and the plates were incubated on ice for 20 minutes, followed by centrifugation. The cells were resuspended in 200 μL FACS buffer, centrifuged again, and resuspended in 50 μL diluted secondary antibody (Alexa647-anti-Human IgG or APC-anti-Mouse IgG). The plates were incubated on ice for 20 minutes in the dark, washed twice with 200 μL FACS buffer, and cells from each well (in 200 μL FACS buffer) were read on the Attune NXT instrument.

For test [4], the target named is T4, human LAP-TGFβ2 on HT1080 cells (human, UniProt P61812 21-414).
T4 construct: also called human TGFβ2
T4 sequence: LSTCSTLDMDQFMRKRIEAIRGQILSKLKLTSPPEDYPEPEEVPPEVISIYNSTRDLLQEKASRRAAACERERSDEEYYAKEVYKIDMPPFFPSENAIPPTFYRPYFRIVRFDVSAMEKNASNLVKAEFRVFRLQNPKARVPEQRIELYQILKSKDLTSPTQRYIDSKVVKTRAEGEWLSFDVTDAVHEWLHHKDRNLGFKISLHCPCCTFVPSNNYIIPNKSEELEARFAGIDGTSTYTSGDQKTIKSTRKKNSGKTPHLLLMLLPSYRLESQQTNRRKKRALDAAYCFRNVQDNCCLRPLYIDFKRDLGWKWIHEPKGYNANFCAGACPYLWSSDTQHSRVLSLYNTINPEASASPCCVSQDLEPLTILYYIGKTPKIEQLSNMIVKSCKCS
The test is described as follows: summary table; binding to human TGFβ2. As to the method: as §1

In test [5] the target is T5, human LAP-TGFβ1 on transfected cells (human, UniProt P01137 30-390). The test is described as follows: cell-based or functional assay.
T5 sequence (P01137 other isoform, or with tags, fused parts or gaps): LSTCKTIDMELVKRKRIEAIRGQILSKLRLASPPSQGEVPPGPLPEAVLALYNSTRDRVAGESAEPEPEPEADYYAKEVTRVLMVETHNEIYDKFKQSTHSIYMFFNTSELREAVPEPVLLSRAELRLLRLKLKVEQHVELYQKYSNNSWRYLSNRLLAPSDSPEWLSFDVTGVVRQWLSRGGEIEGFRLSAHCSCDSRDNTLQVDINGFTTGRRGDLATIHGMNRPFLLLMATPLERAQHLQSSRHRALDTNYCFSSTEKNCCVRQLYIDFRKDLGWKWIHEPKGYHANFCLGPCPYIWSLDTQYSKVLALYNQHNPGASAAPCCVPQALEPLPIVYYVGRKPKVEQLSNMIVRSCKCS
Test [6] has as its target T2, murine LAP-TGFβ1 on transfected cells. The experiment in a line: cell-based or functional assay.
Test [7] has as its target T6, LAP-only variant (human LAP without mature TGFβ1) on HT1080 cells (human, UniProt P01137 30-277).
T6 construct: Overexpressed on HT1080 cells; also called HT1080-emptyLAP; empty LAP
The experiment in a line: flow cytometry, HT1080 cells overexpressing the LAP-only variant. As to the method: as §1
(§2) Briefly, 4×10⁵ each of (a) HT1080 cells, (b) HT1080 cells overexpressing human LAP-TGFβ1, (c) HT1080 cells overexpressing LAP-TGFβ1 with K27C and Y75C mutations, (d) HT1080 cells overexpressing LAP-TGFβ1 with a Y74T mutation, and (e) HT1080 cells overexpressing the LAP-only variant were cultured in 96-well plates. […]
(A flow cytometer gives signals particle by particle.)

For test [8], the target named is T4, human LAP-TGFβ2 on HT1080 cells. The test is described as follows: flow cytometry, HT1080 cells overexpressing human LAP-TGFβ2. As for the experimental part:
as §1

Test [9] concerns the target T7, human LAP-TGFβ1 with a Y74T mutation on HT1080 cells (human, UniProt P01137 30-390).
T7 construct: also called HT1080-Y74T; Y74T (open) LAP-TGFβ1 variant
The test is described as follows: flow cytometry, HT1080 cells overexpressing the variant. As for the experimental part: as §1, §2

Test [10] deals with T3, human LAP-TGFβ3 on HT1080 cells. The test is described as follows: flow cytometry, HT1080 cells overexpressing human LAP-TGFβ3. As for the experimental part:
as §1

In test [11] the target is T8, mature TGFβ1 (free human TGFβ1, without LAP) (human, UniProt P01137 279-390).
T8 construct: also called free TGFβ1
T8 sequence (P01137 279-390 limits assumed): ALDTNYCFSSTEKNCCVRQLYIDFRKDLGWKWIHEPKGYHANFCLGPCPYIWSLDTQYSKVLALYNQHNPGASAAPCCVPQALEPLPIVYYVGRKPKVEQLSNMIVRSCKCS
The experiment in a line: inhibition of a TGFβ1 ELISA after pre-incubation with mature TGFβ1. As for the experimental part:
To determine whether anti-LAP antibodies 28G11_hIgG1, 22F9_hIgG1, 20E6_hIgG1, 17G8_hIgG1, and 24E3_hIgG1, bind to free human TGFβ1 (i.e., mature TGFβ1 that lacks LAP), the ability of the antibodies to inhibit an anti-TGFβ ELISA was evaluated. Briefly, mature TGFβ1 (1000 μg) was incubated with the indicated anti-LAP antibodies at 10 μg/mL, an isotype control antibody as a negative control or the anti-TGFβ antibody 1D11 as a positive control for 10 minutes on ice. Supernatants were assayed in a TGFβ1 ELISA (R&D Systems) according to the manufacturer instructions to measure free TGFβ1.
(ELISA stands for enzyme-linked immunosorbent assay.)

Test [12] concerns the target T9, recombinant human LAP-TGFβ1-Fc fusion protein (human, UniProt P01137 30-390).
T9 construct: also called human TGFβ1 in absence of anchor protein (ForteBio); not shown: Fc part, linker and order of fusion not described
The experiment in a line: bio-layer interferometry (ForteBio), single concentration. From the text: The ability of the antibodies to bind in this assay provides definitive evidence that the antibodies bind to LAP-TGFβ1 in the absence of an anchor protein.

Test [13] addresses T5, human LAP-TGFβ1 on transfected cells. The experiment in a line: summary table; binding to human TGFβ1 on transfected cells.

Residue numbers refer to the chain shown, from its start.

T1 sequence (P04202 30-390): as the sequence (P04202 30-390) above
T6 sequence (P01137 30-277 limits assumed, change not shown): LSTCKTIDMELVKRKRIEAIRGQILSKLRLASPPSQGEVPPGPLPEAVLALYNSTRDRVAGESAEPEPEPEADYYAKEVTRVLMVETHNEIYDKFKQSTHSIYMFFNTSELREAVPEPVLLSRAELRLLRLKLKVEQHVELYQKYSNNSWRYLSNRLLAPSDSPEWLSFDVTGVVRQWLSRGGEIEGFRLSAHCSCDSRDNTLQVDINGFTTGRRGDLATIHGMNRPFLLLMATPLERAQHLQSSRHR
T7 sequence (P01137 other isoform, or with tags, fused parts or gaps Y74T Y74T): as the sequence (P01137 other isoform, or with tags, fused parts or gaps) above, with Y74T counted along it
T9 sequence (P01137 other isoform, or with tags, fused parts or gaps limits assumed): as the sequence (P01137 other isoform, or with tags, fused parts or gaps) above

B1: 7H4 (antibody, V domains shown)
VH: DVQLQESGPGLVKPSQSLSLTCSVTGYSITSGYYWNWIRQFPGNKLEWMGYISYDGTNNYNPSLKNRISITRDTSKHQFFLKLNSVTTEDTATYYCARSFYNNYFDFWGQGTTLTVSS
VL: DIQMTQSPSSLSASLGGKVTITCKASQDIDKYIAWYQHKPGKGPRLLIHYTSTLQPGIPSRFSGSGSGRDYSFNISNLEPEDIATYYCLQYDNLRTFGGGTKLEIK
B1: the binding result in test [1] and in test [2] was “binds” each time.

B2: 28G11 (antibody, V domains shown)
VH: EVKLVESGGGLVQPGGSLSLSCAASGFTFTDYYMSWVRQPPGKALEWLGFIRNKPNGYTTEYSASVKGRFTISRDNSQSILYLQMNVLRAEDSATYYCARYTGGGYFDYWGQGTTLTVSS
VL: DIQMTQTTSSLSASLGDRLTISCRASQDISNYLNWYQQKPDGTVKLLIYYTSRLHSGVPSRFSGSGSGTDYSLTISNLEQADIATYFCQQGDTLPWTFGGGTKLEIK
notes: Mouse hybridoma antibody; Used biotinylated or dye-conjugated in cell assays; also called 28G11_(hyb); 28G11_hyb
Regarding B2, the binding result in test [3] and in test [4] was “no binding” in each case. Besides, the “IC50 of inhibition of TGFβ1 activation, P3U1 cell assay” value in test [5] was 1.4 mg/L; in test [6], 1 mg/L.

B3: 28G11_hIgG1 (antibody, V domains shown)
VH: B2 VH
VL: B2 VL
notes: 28G11 in human IgG1 format, by its name
For B3, the binding result in [7] is “no binding”; in [8], “no binding”; in [9], “no binding”; in test [10] it was “no binding”; in test [11], “no binding (tested: 10 µg/mL)”.

B4: 16B4 (antibody, V domains shown)
VH: QVTLKESGPGILQPSQTLSLTCSFSGFSLNTFGMGVGWIRQPSGKGLEWLAHIWWDDDKYYNPALKSRLTISKDTSKNQVFLKIANVDTADTATYYCARIYYYGSWGLYYFDYWGQGTTLTVSS
VL: B2 VL with L19V, A81E, D92N, W96P
B4: the binding result in test [12] and in test [13] was “no binding” in each case.
